{
  "source": "paper PMC10531801",
  "system": "Gp49 (Bacillus phage SPO1)",
  "assay": "SPR",
  "settings": "EMSA: 20 mM Tris, 50 mM NaCl, pH 7.5, 30 min at 4 C, 2% agarose in 0.5x TBE; SPR: Biacore T100, CM5, 25 C, buffer not stated",
  "data": [
    {"sequence": "AUGAAUAGUUAAACAACGUGG [ssRNA]", "values": [
      {"measurement": "Kd", "value": 1.86, "unit": "µM"}
    ]}
  ]
}
